Measured values: paper PMC6391492, “Native mass spectrometry identifies an alternative DNA-binding pathway for BirA from Staphylococcus aureus”

Assays:
[1] = target: S. aureus BirA (biotin retention protein A, biotin protein ligase), strain Mu50, wild type (S. aureus strain Mu50); test: native MS; holo proteins, 10 µM, with 5 µM SabioO oligonucleotide with only one BirA half site, 200 mM ammonium acetate pH 6.9, 4 °C at least 1 hour
[2] = target: S. aureus BirA (biotin retention protein A, biotin protein ligase), strain Mu50, wild type (S. aureus strain Mu50); test: native MS; holo proteins (pre-incubated with 500 µM biotin, 1 mM ATP, 1 mM MgCl2 on ice, then buffer exchanged), no DNA, 10 µM protein in 200 mM ammonium acetate pH 6.85; dimer to monomers
[3] = target: EcBirA (Escherichia coli, UniProt P06709 1-321); test: native nESI-MS; holo (biotinyl-5'-AMP); two subunits on DNA; nESI-MS: 200 mM ammonium acetate pH 6.9, 10 uM protein, 5 uM DNA, 4 C >=1 h; EMSA: 50 mM Tris pH 8.0, 50 mM NaCl, 0.1 mM biotin, 1 mM ATP, 1 mM MgCl2, 10% glycerol, 10 nM DNA, room temperature 30 min; settings: protein: recombinant; chain copies: 2; label: none
[4] = target: EcBirA-R119W (Escherichia coli, UniProt P06709 1-321, R119W); test: native nESI-MS; holo (biotinyl-5'-AMP); two subunits on DNA; 10 uM protein; nESI-MS: 200 mM ammonium acetate pH 6.9, 10 uM protein, 5 uM DNA, 4 C >=1 h; EMSA: 50 mM Tris pH 8.0, 50 mM NaCl, 0.1 mM biotin, 1 mM ATP, 1 mM MgCl2, 10% glycerol, 10 nM DNA, room temperature 30 min; settings: protein: recombinant; label: none
[5] = target: T1, SaBirA-F123G (Staphylococcus aureus Mu50, UniProt A0A0H3JRH8 1-323, F123G); test: EMSA; holo; biotin, ATP, Mg2+; nESI-MS: 200 mM ammonium acetate pH 6.9, 10 uM protein, 5 uM DNA, 4 C >=1 h; EMSA: 50 mM Tris pH 8.0, 50 mM NaCl, 0.1 mM biotin, 1 mM ATP, 1 mM MgCl2, 10% glycerol, 10 nM DNA, room temperature 30 min; settings: protein: recombinant, label: none
[6] = target: T2, SaBirA (Staphylococcus aureus Mu50, UniProt A0A0H3JRH8 1-323); test: native nESI-MS; apo; two subunits on DNA; nESI-MS: 200 mM ammonium acetate pH 6.9, 10 uM protein, 5 uM DNA, 4 C >=1 h; EMSA: 50 mM Tris pH 8.0, 50 mM NaCl, 0.1 mM biotin, 1 mM ATP, 1 mM MgCl2, 10% glycerol, 10 nM DNA, room temperature 30 min; settings: protein: recombinant; label: none; blunt
[7] = target: T1, SaBirA-F123G; test: native nESI-MS; apo; one subunit on DNA; nESI-MS: 200 mM ammonium acetate pH 6.9, 10 uM protein, 5 uM DNA, 4 C >=1 h; EMSA: 50 mM Tris pH 8.0, 50 mM NaCl, 0.1 mM biotin, 1 mM ATP, 1 mM MgCl2, 10% glycerol, 10 nM DNA, room temperature 30 min; settings: protein: recombinant; label: none; blunt
[8] = target: T2, SaBirA; test: native nESI-MS; apo; one monomer on DNA, no dimer; nESI-MS: 200 mM ammonium acetate pH 6.9, 10 uM protein, 5 uM DNA, 4 C >=1 h; EMSA: 50 mM Tris pH 8.0, 50 mM NaCl, 0.1 mM biotin, 1 mM ATP, 1 mM MgCl2, 10% glycerol, 10 nM DNA, room temperature 30 min; settings: protein: recombinant; label: none; blunt
[9] = target: T2, SaBirA; test: EMSA; holo; biotin, ATP, Mg2+; up to 2 uM; nESI-MS: 200 mM ammonium acetate pH 6.9, 10 uM protein, 5 uM DNA, 4 C >=1 h; EMSA: 50 mM Tris pH 8.0, 50 mM NaCl, 0.1 mM biotin, 1 mM ATP, 1 mM MgCl2, 10% glycerol, 10 nM DNA, room temperature 30 min; settings: protein: recombinant; label: none; blunt
[10] = target: T1, SaBirA-F123G; test: native nESI-MS; apo; nESI-MS: 200 mM ammonium acetate pH 6.9, 10 uM protein, 5 uM DNA, 4 C >=1 h; EMSA: 50 mM Tris pH 8.0, 50 mM NaCl, 0.1 mM biotin, 1 mM ATP, 1 mM MgCl2, 10% glycerol, 10 nM DNA, room temperature 30 min; settings: protein: recombinant; label: none; blunt
[11] = target: T2, SaBirA; test: as above; settings: protein: recombinant; label: none; blunt

“S. aureus BirA (biotin retention protein A, biotin protein ligase), strain Mu50, wild type (enzyme)” showed a stoichiometry N [1] of 2 and a stoichiometry N [2] of 2.

B1: EcbioO (dsDNA)
DNA 1: TAATCGACTTGTAAACCAAATTGAAAAGATTTAGGTTTACAAGTCTACAC
DNA 2: GTGTAGACTTGTAAACCTAAATCTTTTCAATTTGGTTTACAAGTCGATTA
B1: binds [3]; binds [4].

B2: SabioO (dsDNA)
DNA 1: CCTTAAATGTAAACTTTTATAATTAATAAGTTTACATTTAAG
DNA 2: CCTTAAATGTAAACTTATTAATTATAAAAGTTTACATTTAAGG
B2: binds [5].

B3: SabioY (full strands) (dsDNA)
DNA 1: AACTTATTGTAAACTTTTCATTTCTTAAAGTTTACAATGGTGCT
DNA 2: AGCACCATTGTAAACTTTAAGAAATGAAAAGTTTACAATAAGTT
B3: binds ([5]; blunt); binds [6].

B4: HS1m SabioO (first half-site mutated) (dsDNA)
DNA 1: TTACACAGACGATTATTAATTATAAAAGTTTACATTCG
DNA 2: CGAATGTAAACTTTTATAATTAATAATCGTCTGTGTAA
B4: binds [7]; binds [8].

B5: HS2m SabioO (second half-site mutated) (dsDNA)
DNA 1: TTAAATGTAAACTTATTAATTATAAAAAGCAGACACCG
DNA 2: CGGTGTCTGCTTTTTATAATTAATAAGTTTACATTTAA
B5: no binding [9].

B6: HSm SabioO (both half-sites mutated) (dsDNA)
DNA 1: TTACACAGACGATTATTAATTATAAAAAGCAGACACCG
DNA 2: CGGTGTCTGCTTTTTATAATTAATAATCGTCTGTGTAA
B6: no binding [10]; no binding [11].
